Where two headings read alike, the source gives them in different places.
How the values were obtained:
[1] = molecular target: SusF, purified recombinant (untagged) (Legionella pneumophila (Philadelphia-1 Lp01)) (UniProt Q5ZSL2); assay: SPR
[2] = molecular target: SusF, purified recombinant (untagged) (Legionella pneumophila (Philadelphia-1 Lp01)) (UniProt Q5ZSL2); assay: SPR; remark: listed apart in the source
[3] = molecular target: SusF co-expressed with SidI (Legionella pneumophila (Philadelphia-1 Lp01)); assay: SEC

Row | Substance | Kd [1] | koff,1 (two-state model, first step) [1] | koff,2 (two-state model, second step) [1] | kon,1 (two-state model, first step) [1] | kon,2 (two-state model, second step) [1] | Kd [2] | koff [2] | kon [2] | stoichiometry N [3]
1 | His6-SidI (from UniProt Q5ZSL3 1-942) (natural protein) | 3.1 nM | 0.00051 s⁻¹ | 0.00045 s⁻¹ | 27000 M⁻¹ s⁻¹ | 0.0023 s⁻¹ | 0.89 nM | 0.00019 s⁻¹ | 220000 M⁻¹ s⁻¹ | –
2 | SidI co-expressed with SusF (natural protein) | – | – | – | – | – | – | – | – | 1

Source: publication doi:10.1101/845313
